Common to all, as to assay: competition
The target in one assay is T1, integrin αvβ5 (human, UniProt P06756).
T1 chain 1: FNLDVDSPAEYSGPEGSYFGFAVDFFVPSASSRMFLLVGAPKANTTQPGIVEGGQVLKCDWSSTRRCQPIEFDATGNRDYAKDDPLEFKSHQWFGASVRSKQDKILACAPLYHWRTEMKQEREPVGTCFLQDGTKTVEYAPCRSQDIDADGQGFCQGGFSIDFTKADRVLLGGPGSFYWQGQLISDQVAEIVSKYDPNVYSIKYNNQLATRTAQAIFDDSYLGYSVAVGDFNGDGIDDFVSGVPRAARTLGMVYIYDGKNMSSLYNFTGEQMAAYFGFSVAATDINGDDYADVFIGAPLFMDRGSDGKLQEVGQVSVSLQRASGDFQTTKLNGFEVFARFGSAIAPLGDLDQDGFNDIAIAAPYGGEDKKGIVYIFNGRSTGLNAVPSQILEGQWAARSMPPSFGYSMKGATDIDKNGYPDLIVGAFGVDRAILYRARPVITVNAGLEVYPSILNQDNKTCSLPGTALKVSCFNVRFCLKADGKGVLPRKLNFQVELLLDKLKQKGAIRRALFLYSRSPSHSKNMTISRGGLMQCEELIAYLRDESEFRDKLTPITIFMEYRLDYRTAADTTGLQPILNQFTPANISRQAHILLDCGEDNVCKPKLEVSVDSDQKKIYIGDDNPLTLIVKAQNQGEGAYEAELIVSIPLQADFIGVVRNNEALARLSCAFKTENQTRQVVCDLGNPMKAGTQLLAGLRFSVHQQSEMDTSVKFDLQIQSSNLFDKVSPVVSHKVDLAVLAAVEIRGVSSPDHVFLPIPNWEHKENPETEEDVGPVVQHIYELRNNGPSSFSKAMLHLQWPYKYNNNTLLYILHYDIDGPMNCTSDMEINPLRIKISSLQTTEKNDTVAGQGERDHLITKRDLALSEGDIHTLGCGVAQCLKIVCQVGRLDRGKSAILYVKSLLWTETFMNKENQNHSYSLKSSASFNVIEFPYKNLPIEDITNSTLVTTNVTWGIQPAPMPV
T1 chain 2: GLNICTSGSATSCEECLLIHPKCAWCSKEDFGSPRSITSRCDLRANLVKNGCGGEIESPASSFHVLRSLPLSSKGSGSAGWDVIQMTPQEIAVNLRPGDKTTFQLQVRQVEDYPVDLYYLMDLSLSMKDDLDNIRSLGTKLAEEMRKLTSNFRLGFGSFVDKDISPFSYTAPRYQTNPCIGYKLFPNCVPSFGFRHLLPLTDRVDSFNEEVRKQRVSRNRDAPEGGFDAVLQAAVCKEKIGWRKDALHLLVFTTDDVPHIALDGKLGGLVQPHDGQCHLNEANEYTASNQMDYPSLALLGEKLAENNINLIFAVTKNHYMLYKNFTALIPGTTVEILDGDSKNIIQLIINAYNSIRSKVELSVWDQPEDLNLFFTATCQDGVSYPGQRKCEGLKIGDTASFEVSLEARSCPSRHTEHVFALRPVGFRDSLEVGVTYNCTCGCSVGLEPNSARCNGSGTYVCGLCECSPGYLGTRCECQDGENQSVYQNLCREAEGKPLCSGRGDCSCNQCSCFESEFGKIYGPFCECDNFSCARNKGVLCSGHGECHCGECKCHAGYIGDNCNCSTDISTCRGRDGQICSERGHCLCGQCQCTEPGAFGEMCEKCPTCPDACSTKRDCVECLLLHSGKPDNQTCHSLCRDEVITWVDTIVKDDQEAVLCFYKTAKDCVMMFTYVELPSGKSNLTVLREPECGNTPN

Assay [1] deals with T2, integrin α5β1 (human, UniProt P08648).
T2 sequence (P08648 42-1049, chain 1 of 2): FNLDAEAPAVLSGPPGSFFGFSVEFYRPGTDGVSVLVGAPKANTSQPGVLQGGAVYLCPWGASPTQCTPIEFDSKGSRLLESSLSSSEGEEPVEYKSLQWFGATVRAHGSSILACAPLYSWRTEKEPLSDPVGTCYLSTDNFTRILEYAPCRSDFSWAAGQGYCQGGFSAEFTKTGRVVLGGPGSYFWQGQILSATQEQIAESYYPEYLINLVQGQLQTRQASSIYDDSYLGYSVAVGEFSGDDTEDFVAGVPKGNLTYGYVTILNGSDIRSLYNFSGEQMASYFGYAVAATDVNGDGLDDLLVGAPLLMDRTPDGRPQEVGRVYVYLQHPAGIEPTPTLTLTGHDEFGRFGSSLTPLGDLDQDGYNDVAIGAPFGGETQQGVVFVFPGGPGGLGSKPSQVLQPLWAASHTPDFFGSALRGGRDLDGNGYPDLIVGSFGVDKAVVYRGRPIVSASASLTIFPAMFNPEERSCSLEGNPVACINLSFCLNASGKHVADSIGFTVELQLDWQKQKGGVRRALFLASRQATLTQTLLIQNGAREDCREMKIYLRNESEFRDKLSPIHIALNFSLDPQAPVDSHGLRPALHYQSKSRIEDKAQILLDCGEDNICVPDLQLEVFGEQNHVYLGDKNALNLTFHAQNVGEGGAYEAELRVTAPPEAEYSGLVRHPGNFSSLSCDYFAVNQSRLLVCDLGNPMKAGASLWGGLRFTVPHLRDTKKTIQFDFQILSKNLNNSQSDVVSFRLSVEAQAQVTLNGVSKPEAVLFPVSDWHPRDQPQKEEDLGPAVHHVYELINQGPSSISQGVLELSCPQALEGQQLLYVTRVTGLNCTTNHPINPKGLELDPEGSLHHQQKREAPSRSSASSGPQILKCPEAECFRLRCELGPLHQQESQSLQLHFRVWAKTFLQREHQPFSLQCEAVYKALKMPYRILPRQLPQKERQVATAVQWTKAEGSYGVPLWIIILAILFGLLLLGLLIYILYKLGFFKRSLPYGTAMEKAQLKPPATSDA
T2 sequence (chain, as listed by the source, chain 2 of 2): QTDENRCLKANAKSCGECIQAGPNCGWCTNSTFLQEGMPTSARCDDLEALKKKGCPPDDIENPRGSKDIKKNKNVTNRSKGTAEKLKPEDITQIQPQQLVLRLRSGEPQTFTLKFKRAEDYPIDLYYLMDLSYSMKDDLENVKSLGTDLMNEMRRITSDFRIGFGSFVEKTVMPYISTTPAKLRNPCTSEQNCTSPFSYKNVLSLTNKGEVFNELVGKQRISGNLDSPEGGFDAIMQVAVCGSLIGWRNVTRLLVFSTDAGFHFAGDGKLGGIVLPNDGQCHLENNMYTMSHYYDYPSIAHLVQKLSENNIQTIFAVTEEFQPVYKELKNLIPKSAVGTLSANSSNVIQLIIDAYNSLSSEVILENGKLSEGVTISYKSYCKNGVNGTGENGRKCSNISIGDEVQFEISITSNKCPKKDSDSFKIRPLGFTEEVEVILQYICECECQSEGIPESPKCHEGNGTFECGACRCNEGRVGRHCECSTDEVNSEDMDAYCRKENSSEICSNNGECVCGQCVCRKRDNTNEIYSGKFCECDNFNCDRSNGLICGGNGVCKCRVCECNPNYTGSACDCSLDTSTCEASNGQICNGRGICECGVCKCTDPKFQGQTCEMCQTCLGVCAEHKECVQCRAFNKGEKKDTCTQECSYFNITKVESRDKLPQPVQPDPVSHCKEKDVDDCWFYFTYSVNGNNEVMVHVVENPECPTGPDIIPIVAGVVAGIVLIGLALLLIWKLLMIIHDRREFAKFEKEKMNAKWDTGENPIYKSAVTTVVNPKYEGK
In another assay the target is T3, integrin αvβ8 (human, UniProt P06756).
T3 chain 1: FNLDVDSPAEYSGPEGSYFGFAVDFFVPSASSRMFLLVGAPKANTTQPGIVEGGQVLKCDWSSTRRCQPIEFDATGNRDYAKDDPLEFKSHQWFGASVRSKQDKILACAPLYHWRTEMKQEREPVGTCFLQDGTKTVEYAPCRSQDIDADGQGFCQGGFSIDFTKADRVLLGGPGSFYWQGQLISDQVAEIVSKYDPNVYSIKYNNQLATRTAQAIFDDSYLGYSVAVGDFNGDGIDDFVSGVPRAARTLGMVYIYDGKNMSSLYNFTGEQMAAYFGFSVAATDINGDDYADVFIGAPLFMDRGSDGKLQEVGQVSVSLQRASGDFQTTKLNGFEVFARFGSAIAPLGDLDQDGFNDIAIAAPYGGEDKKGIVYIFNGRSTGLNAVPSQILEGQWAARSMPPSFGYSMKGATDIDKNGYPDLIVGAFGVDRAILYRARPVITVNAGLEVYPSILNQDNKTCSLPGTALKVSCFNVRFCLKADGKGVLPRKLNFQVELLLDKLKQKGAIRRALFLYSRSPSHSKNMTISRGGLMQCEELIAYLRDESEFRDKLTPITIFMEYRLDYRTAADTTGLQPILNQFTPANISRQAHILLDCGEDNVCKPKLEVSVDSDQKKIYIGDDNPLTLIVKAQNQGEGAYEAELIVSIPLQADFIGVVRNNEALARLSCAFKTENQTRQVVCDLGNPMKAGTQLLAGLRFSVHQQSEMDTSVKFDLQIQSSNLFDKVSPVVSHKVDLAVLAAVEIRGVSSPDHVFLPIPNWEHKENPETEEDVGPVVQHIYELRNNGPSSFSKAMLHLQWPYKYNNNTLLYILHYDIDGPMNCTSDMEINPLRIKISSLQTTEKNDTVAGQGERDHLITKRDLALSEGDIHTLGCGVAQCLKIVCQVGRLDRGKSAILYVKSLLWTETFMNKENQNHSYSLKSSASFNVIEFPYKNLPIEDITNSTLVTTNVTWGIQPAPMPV
T3 chain 2: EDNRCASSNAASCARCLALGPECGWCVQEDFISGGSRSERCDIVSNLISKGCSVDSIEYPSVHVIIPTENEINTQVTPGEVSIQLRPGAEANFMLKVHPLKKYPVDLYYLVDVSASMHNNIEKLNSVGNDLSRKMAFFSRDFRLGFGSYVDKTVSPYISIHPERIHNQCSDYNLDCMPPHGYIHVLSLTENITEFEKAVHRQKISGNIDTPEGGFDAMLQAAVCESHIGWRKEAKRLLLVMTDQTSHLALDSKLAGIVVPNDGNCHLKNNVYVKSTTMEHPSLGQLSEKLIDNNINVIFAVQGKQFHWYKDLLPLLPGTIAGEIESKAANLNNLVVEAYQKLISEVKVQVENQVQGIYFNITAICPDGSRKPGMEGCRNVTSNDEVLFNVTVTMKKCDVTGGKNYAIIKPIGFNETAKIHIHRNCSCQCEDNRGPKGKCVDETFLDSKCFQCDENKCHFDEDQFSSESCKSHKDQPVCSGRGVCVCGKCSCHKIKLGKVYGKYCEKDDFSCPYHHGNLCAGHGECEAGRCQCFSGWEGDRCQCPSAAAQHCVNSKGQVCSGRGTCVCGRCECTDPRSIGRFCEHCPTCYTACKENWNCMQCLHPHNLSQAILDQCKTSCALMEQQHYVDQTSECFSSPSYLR

For assay [2], the target named is T4, integrin αIIbβ3 (human, UniProt P08514).
The next assay addresses T5, integrin αvβ6 (human, UniProt P06756).
T5 chain 1: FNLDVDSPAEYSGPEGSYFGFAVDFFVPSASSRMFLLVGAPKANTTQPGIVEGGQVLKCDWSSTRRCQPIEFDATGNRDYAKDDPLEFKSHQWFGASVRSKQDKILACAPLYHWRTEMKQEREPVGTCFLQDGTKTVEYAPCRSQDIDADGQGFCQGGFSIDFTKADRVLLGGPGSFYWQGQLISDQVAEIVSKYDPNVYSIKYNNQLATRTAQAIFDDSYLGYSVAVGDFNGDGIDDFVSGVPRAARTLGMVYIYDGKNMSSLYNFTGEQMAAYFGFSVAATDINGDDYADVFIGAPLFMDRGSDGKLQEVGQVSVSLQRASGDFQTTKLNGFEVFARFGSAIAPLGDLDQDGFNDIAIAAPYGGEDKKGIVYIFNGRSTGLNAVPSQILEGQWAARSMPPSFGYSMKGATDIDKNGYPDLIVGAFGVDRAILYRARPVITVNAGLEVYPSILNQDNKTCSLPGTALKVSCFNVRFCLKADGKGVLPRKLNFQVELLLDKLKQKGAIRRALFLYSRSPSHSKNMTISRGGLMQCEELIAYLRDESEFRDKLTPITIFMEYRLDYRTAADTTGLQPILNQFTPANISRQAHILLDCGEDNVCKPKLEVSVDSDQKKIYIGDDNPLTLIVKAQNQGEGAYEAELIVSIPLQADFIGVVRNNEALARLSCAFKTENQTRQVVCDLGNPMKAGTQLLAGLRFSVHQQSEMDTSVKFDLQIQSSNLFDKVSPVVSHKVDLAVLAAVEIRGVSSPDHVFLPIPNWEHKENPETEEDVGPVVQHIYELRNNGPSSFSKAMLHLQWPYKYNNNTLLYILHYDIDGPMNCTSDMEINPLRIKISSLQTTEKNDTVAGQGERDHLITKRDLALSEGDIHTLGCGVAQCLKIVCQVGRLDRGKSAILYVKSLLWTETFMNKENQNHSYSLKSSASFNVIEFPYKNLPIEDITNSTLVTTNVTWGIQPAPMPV
T5 chain 2: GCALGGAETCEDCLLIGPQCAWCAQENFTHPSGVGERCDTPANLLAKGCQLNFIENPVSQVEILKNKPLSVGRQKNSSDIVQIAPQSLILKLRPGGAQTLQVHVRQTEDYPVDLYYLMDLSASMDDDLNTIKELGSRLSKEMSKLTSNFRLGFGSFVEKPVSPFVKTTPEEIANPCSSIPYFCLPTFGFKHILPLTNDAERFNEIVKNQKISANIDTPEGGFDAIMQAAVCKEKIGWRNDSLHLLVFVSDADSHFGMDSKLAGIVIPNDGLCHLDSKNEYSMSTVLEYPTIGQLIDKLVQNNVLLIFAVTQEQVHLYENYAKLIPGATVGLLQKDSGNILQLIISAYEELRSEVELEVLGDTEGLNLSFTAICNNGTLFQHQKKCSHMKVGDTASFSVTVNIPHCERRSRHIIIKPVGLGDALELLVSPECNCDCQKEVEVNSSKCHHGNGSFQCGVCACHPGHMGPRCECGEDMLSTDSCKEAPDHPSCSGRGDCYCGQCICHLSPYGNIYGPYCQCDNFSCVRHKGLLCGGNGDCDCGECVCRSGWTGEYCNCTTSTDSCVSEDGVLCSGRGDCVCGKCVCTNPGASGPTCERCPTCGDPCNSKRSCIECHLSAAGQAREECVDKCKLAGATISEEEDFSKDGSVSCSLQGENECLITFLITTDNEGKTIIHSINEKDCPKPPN

A further assay concerns the target T6, integrin αvβ3 (human, UniProt P06756).
T6 chain 1: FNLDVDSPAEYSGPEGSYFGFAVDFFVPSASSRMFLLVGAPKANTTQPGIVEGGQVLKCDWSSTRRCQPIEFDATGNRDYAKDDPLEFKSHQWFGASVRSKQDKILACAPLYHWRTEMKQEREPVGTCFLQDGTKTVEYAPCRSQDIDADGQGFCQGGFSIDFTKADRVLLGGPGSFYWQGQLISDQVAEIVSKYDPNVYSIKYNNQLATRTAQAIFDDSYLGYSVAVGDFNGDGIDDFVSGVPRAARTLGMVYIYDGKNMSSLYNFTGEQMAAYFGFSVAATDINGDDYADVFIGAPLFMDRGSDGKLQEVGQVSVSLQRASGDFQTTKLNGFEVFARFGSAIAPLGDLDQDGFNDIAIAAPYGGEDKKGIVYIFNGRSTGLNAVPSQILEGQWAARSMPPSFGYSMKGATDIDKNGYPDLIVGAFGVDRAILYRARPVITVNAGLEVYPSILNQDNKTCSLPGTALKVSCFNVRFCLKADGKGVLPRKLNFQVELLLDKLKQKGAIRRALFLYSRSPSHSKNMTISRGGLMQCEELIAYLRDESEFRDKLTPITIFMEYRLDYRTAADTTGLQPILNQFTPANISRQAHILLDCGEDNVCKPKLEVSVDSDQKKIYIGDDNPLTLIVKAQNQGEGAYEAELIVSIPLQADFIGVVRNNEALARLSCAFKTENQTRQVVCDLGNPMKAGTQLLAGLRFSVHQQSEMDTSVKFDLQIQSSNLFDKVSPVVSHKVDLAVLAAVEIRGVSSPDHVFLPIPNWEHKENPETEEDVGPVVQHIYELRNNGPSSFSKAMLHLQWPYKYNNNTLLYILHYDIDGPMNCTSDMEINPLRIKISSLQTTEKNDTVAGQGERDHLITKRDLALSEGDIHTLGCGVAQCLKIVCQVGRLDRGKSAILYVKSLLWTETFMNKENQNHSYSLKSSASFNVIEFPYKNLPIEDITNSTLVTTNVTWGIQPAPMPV
T6 chain 2: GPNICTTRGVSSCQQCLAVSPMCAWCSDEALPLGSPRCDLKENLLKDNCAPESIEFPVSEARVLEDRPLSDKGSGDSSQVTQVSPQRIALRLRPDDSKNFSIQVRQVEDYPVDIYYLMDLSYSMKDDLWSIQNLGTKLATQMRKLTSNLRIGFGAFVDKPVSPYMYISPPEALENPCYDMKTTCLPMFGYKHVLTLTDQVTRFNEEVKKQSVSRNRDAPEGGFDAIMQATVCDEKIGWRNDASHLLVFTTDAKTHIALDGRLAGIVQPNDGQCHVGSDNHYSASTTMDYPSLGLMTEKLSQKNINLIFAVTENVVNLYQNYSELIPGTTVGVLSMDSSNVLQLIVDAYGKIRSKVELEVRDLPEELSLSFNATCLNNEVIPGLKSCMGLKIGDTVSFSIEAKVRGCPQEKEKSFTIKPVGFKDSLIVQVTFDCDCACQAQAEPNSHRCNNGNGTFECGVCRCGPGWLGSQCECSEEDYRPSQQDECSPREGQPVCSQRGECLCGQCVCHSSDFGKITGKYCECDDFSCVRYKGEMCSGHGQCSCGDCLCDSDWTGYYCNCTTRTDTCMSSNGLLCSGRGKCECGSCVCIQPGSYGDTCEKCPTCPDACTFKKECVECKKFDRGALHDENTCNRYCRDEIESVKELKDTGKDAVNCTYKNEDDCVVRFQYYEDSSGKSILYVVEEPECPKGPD

Assay [3] deals with T4, integrin αIIbβ3. The source holds these as a separate data set.
For assay [4], the target named is T2, integrin α5β1. The source holds these as a separate data set.

Where two headings read alike, the source gives them in different places. [ ]: non-standard residue; d: D form. NMeK = CN[C@@H](CCCCN)C(=O)O

By IC50 is commonly meant the concentration needed to halve the response being measured. A low value points to inhibition by little substance.

B1: Compound 8 (peptide)
chain: cyclo(RGDL[dP][NMeK]GL)
SMILES: CC(C)C[C@@H]1NC(=O)CNC(=O)[C@H](CCCCN)N(C)C(=O)[C@H]2CCCN2C(=O)[C@H](CC(C)C)NC(=O)[C@H](CC(=O)O)NC(=O)CNC(=O)[C@H](CCCNC(=N)N)NC1=O
As for B1, the IC50 with integrin αvβ5 was over 1000 nM; with integrin α5β1 [1], over 1000 nM; with integrin αvβ8, 6.5 nM; with integrin αIIbβ3 [2] it was over 1000 nM; in the assay with integrin αvβ6, 201 nM; with integrin αvβ3, over 1000 nM.
Turning to cyclo(RGD[dF]K) [Compound 12 (Table 3) c(RGDfK)], the IC50 was over 10000 nM with integrin αIIbβ3 [3] and 141 nM in the assay with integrin α5β1 [4].

Values taken from patent US20200087347 (published 2020).
